Measured values published in patent publication US20230035859A1, “COMPOSITIONS AND METHODS FOR EPITOPE SCANNING” (priority 2019, published 2023).

B1: … (peptide)
peptide: SLPGVFCGV
modifications: not checked
B2: … (peptide)
peptide: VMAYITGGVV
modifications: not checked
B3: … (peptide)
peptide: VLYQDVNCTEV
modifications: not checked
B4: … (peptide)
peptide: VMVELVAEL
modifications: not checked
B5: … (peptide)
peptide: YIDIGNYTV
modifications: not checked
B6: … (peptide)
peptide: VMAYITGGV
modifications: not checked
B7: … (peptide)
peptide: AMDEFIERYKL
modifications: not checked
B8: … (peptide)
peptide: TLATHGLAAV
modifications: not checked

Target: QuickSwitch Quant HLA-A*02:01 Tetramers (PE or APC labeled) (MBL International), A*02:0
Assay: QuickSwitch Quant tetramer control peptide exchange

First: B1
Second: B2
The % Peptide Exchange of the first is lower: 98% for the first, 99.1% for the second.

First: B3
Second: B4
The % Peptide Exchange of the first is lower: 97.9% for the first, 98.6% for the second.

Going from B5 to B6, the % Peptide Exchange rises from 97.9% to 99.1%.

Going from B7 to B8, the % Peptide Exchange rises from 96.9% to 98%.

Target: HLA-A*02:01 (human)
Assay: not given

First: B1
Second: B2
The EpiScan MFI of the first is higher: 6.42 for the first, 4.64 for the second.

Going from B3 to B4, the EpiScan MFI falls from 5.6 to 5.34.

Compared with B5, B6 is higher in EpiScan MFI: 4.42 for the first, 4.53 for the second.

Compared with B7, B8 is higher in EpiScan MFI: 2.35 for the first, 4.04 for the second.
